Laboratory results reported in patent publication US20260007698A1 (published 2026).

Experiments:
[1] = molecular target: T1, VCX; peptide VCX-23 peptide on HLA-A*11:01 (human); assay: killing
T1 peptide: SSQPSPSDPK

[2] = molecular target: T2, VCY (Variable charge Y-linked) CT antigen; peptide VCY-23 peptide on HLA-A*11:01 (human); assay: multimer staining
T2 peptide: SSQPSPSGPK

B1: VCY-23 specific TCR (TCR, V domains shown)
Valpha: RKEVEQDPGPFNVPEGATVAFNCTYSNSASQSFFWYRQDCRKEPKLLMSVYSSGNEDGRFTAQLNRASQYISLLIRDSKLSDSATYLCVVTFDNYGQNFVFGPGTRLSVLP
Vbeta: NAGVTQTPKFRVLKTGQSMTLLCAQDMNHEYMYWYRQDPGMGLRLIHYSVGEGTTAKGEVPDGYNVSRLKKQNFLLGLESAAPSQTSVYFCASSYTYNYNEQFFGPGTRLTVL
binding result [1]: no recognition
binding result [2]: recognises
